Assay results from patent publication US20240262791A1 (University of California, published 2024).
Like-named read-outs stand apart in the source and are kept apart here.

How the values were obtained:
[1] = target: T1, Mutated SARS-CoV-2 (COVID-19) S protein (RBD), South African strain (K417N, E484K, N501Y) (SARS-CoV-2, UniProt P0DTC2 319-537)
[2] = target: T2, Mutated SARS-CoV-2 (COVID-19) S protein (RBD) E484K (SARS-CoV-2, UniProt P0DTC2 319-537); assay: BLI; KD column of Table 2 repeats Table 4
[3] = target: T1, Mutated SARS-CoV-2 (COVID-19) S protein …; assay: BLI; KD column of Table 2 repeats Table 4
[4] = target: T3, Spike RBD, WT (Example 7, Tables 4 and 2) (SARS-CoV-2, UniProt P0DTC2 319-541); assay: BLI; KD column of Table 2 repeats Table 4
T3 construct: also called wildtype spike protein; Spike protein RBD

[5] = target: T4, Mutated SARS-CoV-2 (COVID-19) S protein (RBD) N501Y (SARS-CoV-2, UniProt P0DTC2 319-537); assay: BLI; KD column of Table 2 repeats Table 4
T4 construct: also called N501Y: UK strain

[6] = target: T5, Mutated SARS-CoV-2 (COVID-19) S protein (RBD) F490L (SARS-CoV-2, UniProt P0DTC2 319-537); assay: BLI; KD column of Table 2 repeats Table 4
[7] = target: T6, Mutated SARS-CoV-2 (COVID-19) S protein (RBD) N439K (SARS-CoV-2, UniProt P0DTC2 319-537); assay: BLI; KD column of Table 2 repeats Table 4
[8] = target: T2, Mutated SARS-CoV-2 (COVID-19) S protein …; assay: BLI, biotinylated SR4 on streptavidin sensor, spike RBD in solution, 1:1 fit
[9] = target: T1, Mutated SARS-CoV-2 (COVID-19) S protein …; assay: as above
[10] = target: T3, Spike RBD, WT (Example 7, Tables 4 and …); assay: as above
[11] = target: T4, Mutated SARS-CoV-2 (COVID-19) S protein …; assay: as above
[12] = target: T5, Mutated SARS-CoV-2 (COVID-19) S protein …; assay: as above
[13] = target: T6, Mutated SARS-CoV-2 (COVID-19) S protein …; assay: as above

B1: Biotinylated SR4 (SR4 (5AzF) reacted with DBCO-biotin) (VHH)
VHH: QVQLVESGGGLVQAGGSLRLSCAASGFPVYSWNMWWYRQAPGKEREWVAAIESHGDSTRYADSVKGRFTISRDNAKNTVYLQMNSLKPEDTAVYYCYVWVGHTYYGQGTQVTVSA
notes: also called SR4 nanobody; biotin labeled SR4
- Kd [1]: 57.4 nM
- Kd [2]: 31.8 nM
- Kd [3]: 57 nM
- Kd [4]: 17.9 nM
- Kd [5]: 30.5 nM
- Kd [6]: 42 nM
- Kd [7]: 59.3 nM
- Kd [8]: 31.8 nM
- koff [8]: 0.0034 s⁻¹
- kon [8]: 107000 M⁻¹ s⁻¹
- Kd [9]: 57 nM
- koff [9]: 0.00406 s⁻¹
- kon [9]: 70800 M⁻¹ s⁻¹
- Kd [10]: 17.9 nM
- koff [10]: 0.00226 s⁻¹
- kon [10]: 126000 M⁻¹ s⁻¹
- Kd [11]: 30.5 nM
- koff [11]: 0.0027 s⁻¹
- kon [11]: 88600 M⁻¹ s⁻¹
- Kd [12]: 42 nM
- koff [12]: 0.00476 s⁻¹
- kon [12]: 113000 M⁻¹ s⁻¹
- Kd [13]: 59.3 nM
- koff [13]: 0.00595 s⁻¹
- kon [13]: 100000 M⁻¹ s⁻¹
